B1: VTGAVGVGK polypeptide (KRAS; SEQ ID NO: 3) (peptide)
peptide: VTGAVGVGK
notes: Synthesized mutant KRAS neoantigen peptide, printed as a 9-mer; also called core polypeptide
B2: VTVGAVGVGK polypeptide (KRAS; SEQ ID NO: 4) (peptide)
peptide: VTVGAVGVGK
notes: Synthesized mutant KRAS neoantigen peptide; also called core polypeptide
B3: VSVGAVGVGK polypeptide (KRAS; SEQ ID NO: 6) (peptide)
peptide: VSVGAVGVGK
notes: as for B2
B4: VTVGAAGVGK polypeptide (KRAS; SEQ ID NO: 5) (peptide)
peptide: VTVGAAGVGK
notes: as for B2
B5: VTVGADGVGK polypeptide (KRAS; SEQ ID NO: 1) (peptide)
peptide: VTVGADGVGK
notes: as for B2

Target: T1, HLA-A*11:01 (MHC-I molecules on the surfaces of T2 cells) (human)
T1 construct: It only names the antibody against 'the corresponding HLA typing (HLA-A*11:01)'; also called HLA molecules
Assay: T2 cell MHC-I stabilisation assay, flow cytometry with FITC anti-HLA-A*11:01 antibody
Method: The synthesized polypeptides were added to 2*10⁵ T2 cells, and human β2 micro-globulin (final concentration of 3 μg/ml) was added and cultivated in 24-well plate. The plate was cultured in an incubator (37° C., 5% CO₂) overnight.
200 g of cultured cells was centrifuged for 5 minutes to collect the cells. After washing twice with PBS, the cells were directly incubated with FITC-labeled monoclonal antibody against the corresponding HLA typing (HLA-A*11:01), and maintained at 4° C. for 30 minutes.

| Binder | FI (fluorescence index) |
| --- | --- |
| B1 | 2.37 |
| B2 | 2.02 |
| B3 | 2.42 |
| B4 | 2.12 |
| B5 | 2.83 |

Reference: patent publication US20220378887A1 (GENOIMMUNE THERAPEUTICS, published 2022)
